# Measured values reported in publication PMC11847480.
# Target: gp130 (human (endogenous in TF-1)) (UniProt P40189)
# Sequence (P40189 23-918): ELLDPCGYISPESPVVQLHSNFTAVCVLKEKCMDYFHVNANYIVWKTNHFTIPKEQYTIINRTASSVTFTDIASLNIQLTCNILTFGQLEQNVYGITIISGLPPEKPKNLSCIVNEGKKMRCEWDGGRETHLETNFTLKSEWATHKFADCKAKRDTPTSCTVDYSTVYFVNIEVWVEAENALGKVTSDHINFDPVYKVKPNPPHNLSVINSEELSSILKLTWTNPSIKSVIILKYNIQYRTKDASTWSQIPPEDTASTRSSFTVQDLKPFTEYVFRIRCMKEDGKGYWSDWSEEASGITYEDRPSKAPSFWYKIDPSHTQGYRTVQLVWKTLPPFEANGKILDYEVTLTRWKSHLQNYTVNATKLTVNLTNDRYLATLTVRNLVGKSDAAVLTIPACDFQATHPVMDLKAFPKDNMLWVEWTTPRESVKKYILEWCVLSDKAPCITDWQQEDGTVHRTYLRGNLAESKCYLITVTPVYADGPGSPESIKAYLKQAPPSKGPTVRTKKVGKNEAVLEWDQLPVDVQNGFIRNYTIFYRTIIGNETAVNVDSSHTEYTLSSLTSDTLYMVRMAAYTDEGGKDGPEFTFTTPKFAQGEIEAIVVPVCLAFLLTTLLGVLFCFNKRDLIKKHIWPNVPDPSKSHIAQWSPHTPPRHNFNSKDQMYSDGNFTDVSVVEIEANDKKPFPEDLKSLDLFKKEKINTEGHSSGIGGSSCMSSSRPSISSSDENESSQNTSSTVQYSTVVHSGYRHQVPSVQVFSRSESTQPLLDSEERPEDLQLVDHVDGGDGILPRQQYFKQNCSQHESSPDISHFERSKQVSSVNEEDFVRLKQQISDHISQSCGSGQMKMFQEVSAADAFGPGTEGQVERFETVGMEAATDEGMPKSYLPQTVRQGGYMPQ
# Chain of LIF with truncation of the N-terminal region (P15018 23-202): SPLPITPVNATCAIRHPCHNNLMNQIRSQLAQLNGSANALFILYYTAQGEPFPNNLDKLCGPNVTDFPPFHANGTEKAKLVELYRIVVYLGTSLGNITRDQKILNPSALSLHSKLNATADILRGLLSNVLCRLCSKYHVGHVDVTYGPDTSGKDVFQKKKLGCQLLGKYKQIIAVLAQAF
Substance,"TF-1 cell proliferation, fold change of EC50 against wild-type LIF [fold]",TF-1 cell proliferation activity against wild-type LIF [fold]
LIF 2E (R37E and H38E) (from UniProt P15018 23-202) (ligand),3,–
"LIF 3E (R37E, H38E and H41E) (from UniProt P15018 23-202) (ligand)",4,–
LIF with truncation of the N-terminal region (from UniProt P15018 23-202) (ligand),–,1
